Measurements from patent US11267868 (dated 2022).
Positions count from the first letter of the chain named. Read-outs that look alike come from different tables or passages of the source. One block for each binder: values may come before it.

Key:
Assay in all cases: SPR
[1] = target: T1, FcgRIIIaV (human, UniProt P08637)
[2] = target: T2, FcgRIIb (human, UniProt P31994)
T2 chain: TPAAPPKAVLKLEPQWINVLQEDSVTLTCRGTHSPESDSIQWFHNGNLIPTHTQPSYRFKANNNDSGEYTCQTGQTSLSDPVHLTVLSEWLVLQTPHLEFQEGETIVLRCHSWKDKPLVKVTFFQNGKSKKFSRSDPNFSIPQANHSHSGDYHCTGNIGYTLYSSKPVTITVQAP

[3] = target: T3, FcgRIIaH (human, UniProt P12318)
T3 chain: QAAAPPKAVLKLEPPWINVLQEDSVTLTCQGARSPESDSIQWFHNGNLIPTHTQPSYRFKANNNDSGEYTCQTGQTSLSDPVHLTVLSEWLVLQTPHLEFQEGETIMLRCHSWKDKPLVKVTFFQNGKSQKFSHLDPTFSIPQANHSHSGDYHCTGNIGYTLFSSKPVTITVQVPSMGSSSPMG

[4] = target: T4, FcgRIIaR (human, UniProt P12318)
T4 chain: T3 chain with H134R

[5] = target: T5, FcgRIa (human, UniProt P12314)
T5 chain: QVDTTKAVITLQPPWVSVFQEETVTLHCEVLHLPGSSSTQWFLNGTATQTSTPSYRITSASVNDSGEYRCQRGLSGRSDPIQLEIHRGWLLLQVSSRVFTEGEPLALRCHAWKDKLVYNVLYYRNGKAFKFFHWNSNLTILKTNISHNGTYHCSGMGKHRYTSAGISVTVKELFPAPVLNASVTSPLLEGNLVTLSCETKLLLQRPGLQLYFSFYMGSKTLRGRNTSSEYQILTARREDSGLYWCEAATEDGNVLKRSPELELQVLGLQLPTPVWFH

[6] = target: T1, FcgRIIIaV; remark: listed apart in the source
[7] = target: T4, FcgRIIaR
[8] = target: T5, FcgRIa
[9] = target: T2, FcgRIIb
[10] = target: T3, FcgRIIaH

T1 sequence (P08637 17-208 F176V): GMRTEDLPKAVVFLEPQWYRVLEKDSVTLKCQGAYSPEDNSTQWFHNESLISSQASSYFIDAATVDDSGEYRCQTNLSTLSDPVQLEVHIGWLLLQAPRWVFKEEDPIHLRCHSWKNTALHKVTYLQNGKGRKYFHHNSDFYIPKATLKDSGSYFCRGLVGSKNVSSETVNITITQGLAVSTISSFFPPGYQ

- Kd [1]: 73 µM
- Kd [2]: 2.3 µM
- Kd [3]: 140 µM
- Kd [4]: 59 µM
- Kd [5]: 0.26 µM
B1: IL6R-P735/IL6R-L (antibody)
chain 1: QVQLQESGPGLVKPSETLSLTCAVSGHSISHDHAWSWVRQPPGEGLEWIGFISYSGITNYNPSLQGRVTISRDNSKNTLYLQMNSLRAEDTAVYYCARSLARTTAMDYWGEGTLVTVSSASTKGPSVFPLAPSSKSTSGGTAALGCLVKDYFPEPVTVSWNSGALTSGVHTFPAVLQSSGLYSLSSVVTVPSSSLGTQTYICNVNHKPSNTKVDKKVEPKSCDKTHTCPPCPAPELFGQDSVMLFPPKPKDTLMISRTPEVTCVVVDVSPEDPEVKFNWYVDGVEVHNAKTKPREEQENSTYRVVSVLTVLHQDWLNGKEYKCKVSNKALPHPIEKTISKAKGQPREPQVYTLPPSRDELTKNQVSLTCLVKGFYPSDIAVEWESNGQPENNYKTTPPVLDSDGSFFLYSKLTVDKSRWQQGNVFSCSVMHEALHNHYTQKSLSLSP
chain 2: not shown

- Kd [1]: 68 µM
- Kd [2]: 6.4 µM
- Kd [3]: 160 µM
- Kd [4]: 120 µM
- Kd [5]: 0.17 µM
B2: IL6R-P737/IL6R-L (antibody)
chain 1: B1 chain 1 with F237L, S326H
chain 2: not shown

- Kd [1]: 50 µM
- Kd [2]: 3.9 µM
- Kd [3]: 81 µM
- Kd [4]: 74 µM
- Kd [5]: 0.58 µM
B3: IL6R-P728/IL6R-L (antibody)
chain 1: B1 chain 1 with P270H, S326H, H332A
chain 2: not shown

- Kd [1]: 77 µM
- Kd [2]: 4.7 µM
- Kd [3]: 180 µM
- Kd [4]: 130 µM
- Kd [5]: 2.5 µM
B5: IL6R-P733/IL6R-L (antibody)
chain 1: B1 chain 1 with S326H, H332A
chain 2: not shown

- Kd [1]: 100 µM
- Kd [2]: 2.5 µM
- Kd [3]: 84 µM
- Kd [4]: 68 µM
- Kd [5]: 0.22 µM
B6: IL6R-P734/IL6R-L (antibody)
chain 1: B1 chain 1 with P270H, S326H
chain 2: not shown

More lines, now with the values behind:

B4: IL6R-P726/IL6R-L (antibody)
chain 1: B1 chain 1 with F237L, P270H, S326H
chain 2: not shown
- Kd [1]: 36 µM
- Kd [2]: 4.1 µM
- Kd [3]: 61 µM
- Kd [4]: 66 µM
- Kd [5]: 0.19 µM

B7: IL6R-P631/IL6R-L (antibody)
chain 1: QVQLQESGPGLVKPSETLSLTCAVSGHSISHDHAWSWVRQPPGEGLEWIGFISYSGITNYNPSLQGRVTISRDNSKNTLYLQMNSLRAEDTAVYYCARSLARTTAMDYWGEGTLVTVSSASTKGPSVFPLAPSSKSTSGGTAALGCLVKDYFPEPVTVSWNSGALTSGVHTFPAVLQSSGLYSLSSVVTVPSSSLGTQTYICNVNHKPSNTKVDKKVEPKSCDKTHTCPPCPAPDLLGGDSVFLFPPKPKDTLMISRTPEVTCVVINVAEEDGEVKFNWYVDGVEVHNAKTKPREEQYNSTYRVVSVLTVLHQDWLNGKEYKCKVSNKALPAPIEKTISKAKGQPREPQVYTLPPSRDELTKNQVSLTCLVKGFYPSDIAVEWESNGQPENNYKTTPPVLDSDGSFFLYSKLTVDKSRWQQGNVFSCSVMHEALHNHYTQKSLSLSP
chain 2: not shown
- Kd [6]: 47 µM
- Kd [7]: 26 µM
- Kd [8]: 0.011 µM
- Kd [9]: 4.4 µM
- Kd [10]: 96 µM

B8: IL6R-P591/IL6R-L (antibody)
chain 1: B1 chain 1 with F237L, Q239G, P270H, H332A
chain 2: not shown
- Kd [1]: 44 µM
- Kd [2]: 3.1 µM
- Kd [3]: 86 µM
- Kd [4]: 37 µM
- Kd [5]: 0.024 µM

B9: IL6R-P636/IL6R-L (antibody)
chain 1: B7 chain 1 with N267D, A269R
chain 2: not shown
- Kd [6]: 45 µM
- Kd [7]: 54 µM
- Kd [8]: 0.46 µM
- Kd [9]: 2.9 µM
- Kd [10]: 170 µM

B10: IL6R-P603/IL6R-L (antibody)
chain 1: B1 chain 1 with F237L, Q239G, P270H, V325I, H332A
chain 2: not shown
- Kd [1]: 83 µM
- Kd [2]: 2.7 µM
- Kd [3]: 110 µM
- Kd [4]: 47 µM
- Kd [5]: 0.022 µM

B11: IL6R-P629/IL6R-L (antibody)
chain 1: B7 chain 1 with G239K, N267D
chain 2: not shown
- Kd [6]: 47 µM
- Kd [7]: 27 µM
- Kd [8]: 0.0033 µM
- Kd [9]: 0.65 µM
- Kd [10]: 100 µM

B12: IL6R-P626/IL6R-L (antibody)
chain 1: B7 chain 1 with L236R, N267D
chain 2: not shown
- Kd [6]: 75 µM
- Kd [7]: 31 µM
- Kd [8]: 0.74 µM
- Kd [9]: 2.7 µM
- Kd [10]: 200 µM

B13: IL6R-P665/IL6R-L (antibody)
chain 1: B7 chain 1 with G239D, N267D, Y298D, N299A, A332R, P398M
chain 2: not shown
- Kd [6]: 67 µM
- Kd [7]: 49 µM
- Kd [8]: 1.9 µM
- Kd [9]: 3.2 µM
- Kd [10]: 450 µM

B14: IL6R-P661/IL6R-L (antibody)
chain 1: B1 chain 1 with F237L, Q239G, M243F, P270H, E298Y, S300A
chain 2: not shown
- Kd [1]: 29 µM
- Kd [2]: 4 µM
- Kd [3]: 94 µM
- Kd [4]: 41 µM
- Kd [5]: 0.01 µM
